Assay results: publication PMC7718890

Target: CarD WT;MTB RNAP (WT) (Mycobacterium …, UniProt P9WJG3;P9WGZ1;P9WGY9;P9WGY7;P9WGY5 1-162;1-347;1-1178;1-1316;1-110, |)
Test: competition (fluorescence polarization)
Conditions: protein: recombinant;recombinant; tags: ;; copies: 1;2;1;1;1; blunt

B1: rrnAP3 native 61 bp (dsDNA)
DNA 1: GATGACCGAACCTGGTCTTGACTCCATTGCCGGATTTGTATTAGACTGGCAGGGTTGCCCC
DNA 2: GGGGCAACCCTGCCAGTCTAATACAAATCCGGCAATGGAGTCAAGACCAGGTTCGGTCATC
- Ki: 8 ± 1 nM
